The record followed here is US20230058519A1 (SHANGHAI CELL THERAPY GROUP, published 2023).

One test concerns the target T1, BCMA-His antigen (UniProt Q02223 1-54).
T1 construct: also called BMCA antigen
T1 sequence (looked up): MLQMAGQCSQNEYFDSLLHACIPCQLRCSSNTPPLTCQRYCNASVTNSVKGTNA
Briefly: SPR, BCMA-his coupled on CM5 chip, TCP as analyte, 1:1 fit. The procedure: First the binding affinity of the purified BCMA-TCPs against BMCA antigen was assessed by SPR. BCMA-his antigen was coupled onto a CM5 chip (GE Healthcare Life Sciences), and then a variety of anti-BCMA BsAbs were flowed at the flow rate of 10 uL/min with dissociation time of 900s. Binding kinetics were determined with a 1:1 fit model.

For test [1], the target named is mesothelin (MSLN) expressed on cells (UniProt Q13421). As to the kind of experiment: flow cytometry on 293T-MSLN+ cells; unit taken from the axis 'Conc.(nM)'.
Chain of mesothelin (MSLN) expressed on cells (Q13421 other isoform, or with tags, fused parts or gaps limits assumed): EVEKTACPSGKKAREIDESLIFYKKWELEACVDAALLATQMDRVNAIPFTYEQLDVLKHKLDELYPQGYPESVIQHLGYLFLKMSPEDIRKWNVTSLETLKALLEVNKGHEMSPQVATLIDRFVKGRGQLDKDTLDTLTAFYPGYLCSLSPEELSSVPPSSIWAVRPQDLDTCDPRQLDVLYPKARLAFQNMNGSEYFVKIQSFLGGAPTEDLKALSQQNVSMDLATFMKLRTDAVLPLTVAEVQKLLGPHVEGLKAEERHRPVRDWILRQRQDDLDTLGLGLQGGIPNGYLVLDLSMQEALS
The target of a further test is T2, BCMA expressed on cells (UniProt Q02223 1-184, limits assumed).
T2 construct: whole, on cells; also called CHOK1-BCMA cell line; BCMA over-expression cell line
T2 sequence (looked up): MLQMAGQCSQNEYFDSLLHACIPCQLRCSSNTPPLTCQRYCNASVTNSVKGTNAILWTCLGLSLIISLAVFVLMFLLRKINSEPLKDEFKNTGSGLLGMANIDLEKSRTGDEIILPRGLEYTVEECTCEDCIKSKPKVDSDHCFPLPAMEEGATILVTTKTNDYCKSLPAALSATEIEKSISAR
As to the kind of experiment: flow cytometry on CHOK1-BCMA+ cells; unit taken from the axis 'Conc.(nM)'. The procedure: The binding bioactivity for mesothelin and BCMA over-expressing cells was evaluated by flow cytometry. Stable cell lines were harvested using 0.25% Trypsin.
About 5E5 cells were collected per sample, and the cells were resuspended in 100 μL/well tested antibodies with His-tag. Then the cells were incubated with anti-His-tag antibody (Genscript, China) and Streptavidin-PE (Biolegend, China). The incubation step of each step was performed at 4° C. in the dark for 1 hr, and then the cells were washed 2× with 200 μL PBS buffer. The washed cells were resuspended in 200 μL PBS buffer and the sample was analyzed by FACS.
(In general: Flow cytometry measures light scatter and fluorescence of single cells or particles in a stream.)

The target of test [2] is T3, MSLN-His antigen (UniProt Q13421 296-580, limits assumed).
T3 construct: also called MSLN-His protein; MSLN antigen
T3 sequence (Q13421 other isoform, or with tags, fused parts or gaps limits assumed): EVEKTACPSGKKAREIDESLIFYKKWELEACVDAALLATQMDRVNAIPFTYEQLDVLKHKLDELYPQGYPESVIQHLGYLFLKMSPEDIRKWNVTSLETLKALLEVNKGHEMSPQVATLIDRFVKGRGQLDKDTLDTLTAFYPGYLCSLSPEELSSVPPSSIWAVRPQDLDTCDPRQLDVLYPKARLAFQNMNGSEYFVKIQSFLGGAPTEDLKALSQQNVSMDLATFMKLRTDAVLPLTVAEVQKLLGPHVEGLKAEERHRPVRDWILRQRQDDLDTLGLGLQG
As to the kind of experiment: SPR (Biacore), VHH-hFc captured on protein A chip, MSLN-His as analyte. The procedure:
The antibody was expressed as a hFc fusion protein, named as M2339(VHH) with the procedure that was described in the patent publication WO2020176815A2 (hereby incorporated by reference in its entirety and for all purposes). The binding affinity of M2339(VHH) towards MSLN antigen was tested by surface plasmon resonance (SPR). First, M2339(VHH) was passed through the sensor chip with protein A immobilized in advance, and the antibody was captured by protein A. Then, five different concentrations of MSLN-His protein were used as the mobile phase, and the binding time and dissociation time were 30 min and 60 min, respectively. Biacore evaluation software 2.0 (GE) was used to analyze the on-rate (kₒₙ), off-rate (koff) and equilibrium constant (KD).

Test [3] deals with mesothelin (MSLN) expressed on cells (UniProt Q13421). As to the kind of experiment: flow cytometry on HEK293T-MSLN cells, serial dilution, anti-human IgG PE detection.
A further test has as its target T4, MSLN I - Fc (UniProt Q13421 296-390, limits assumed).
T4 construct: domain: MSLN I; also called mesothelinI; not shown: human Fc
Briefly: SPR, MSLN domain-Fc captured on protein A chip, M2339 VHH-6his as analyte, 1:1 fit. The procedure: (§1) Affinity was determined by SPR. Protein A chip was used to capture different antigens, various concentrations of M2339(VHH) were injected at a flow rate of 10 μl/min with an association time of 120 to 180 seconds and a dissociation time from 180 to 1200 seconds. Binding kinetics were determined using Biacore Evaluation software in a 1:1 fit model.
(In general: Surface plasmon resonance follows binding to a sensor surface in real time, without labels.)

For the next test, the target named is T5, MSLN I + II - Fc (UniProt Q13421 296-486, limits assumed).
T5 construct: domain: MSLN I + II; not shown: human Fc
T5 sequence (Q13421 other isoform, or with tags, fused parts or gaps limits assumed): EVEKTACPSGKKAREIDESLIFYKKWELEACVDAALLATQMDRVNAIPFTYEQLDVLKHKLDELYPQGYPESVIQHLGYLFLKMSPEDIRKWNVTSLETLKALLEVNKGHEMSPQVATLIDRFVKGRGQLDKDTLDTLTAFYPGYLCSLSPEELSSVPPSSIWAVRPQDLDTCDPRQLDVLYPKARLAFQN
The description is as above. The procedure:
as §1

For a further test, the target named is T6, MSLN II - Fc (UniProt Q13421 391-486, limits assumed).
T6 construct: domain: MSLN II; not shown: human Fc
T6 sequence (Q13421 other isoform, or with tags, fused parts or gaps limits assumed): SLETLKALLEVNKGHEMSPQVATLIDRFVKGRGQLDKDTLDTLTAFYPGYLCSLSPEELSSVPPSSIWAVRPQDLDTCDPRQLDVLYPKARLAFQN
Described as above. The procedure:
as §1

The next test deals with T7, MSLN II + III - Fc (Homo sapiens (Human), UniProt Q13421 391-598).
T7 construct: also called mesothelinII+III; mesothelinII+III domain; not shown: human Fc
T7 sequence (Q13421 other isoform, or with tags, fused parts or gaps limits assumed): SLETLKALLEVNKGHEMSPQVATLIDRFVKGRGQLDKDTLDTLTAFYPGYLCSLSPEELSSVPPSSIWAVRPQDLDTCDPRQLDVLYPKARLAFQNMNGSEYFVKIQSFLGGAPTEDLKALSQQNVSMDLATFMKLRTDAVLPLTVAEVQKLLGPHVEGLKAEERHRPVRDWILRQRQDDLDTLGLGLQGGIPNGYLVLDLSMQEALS
The test is described as above. The procedure: as §1

A further test deals with T8, MSLN III - Fc (UniProt Q13421 487-598, limits assumed).
T8 construct: domain: MSLN III; not shown: human Fc
T8 sequence (Q13421 495-606 limits assumed): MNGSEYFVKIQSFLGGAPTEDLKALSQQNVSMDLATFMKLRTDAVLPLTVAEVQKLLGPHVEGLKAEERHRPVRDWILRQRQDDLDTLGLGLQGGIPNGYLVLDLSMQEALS
The description is as above. The procedure:
as §1

The target of another test is T9, MSLN Full - Fc (UniProt Q13421 296-598, limits assumed).
T9 construct: domain: MSLN Full (mesothelin ECD); also called mesothelin-full; complete mesothelin polypeptide; not shown: human Fc
The description is as above. The procedure: as §1

Test [4] deals with T3, MSLN-His antigen. Briefly: SPR as in Example 2, MSLN His antigen.
Test [5] concerns the target mesothelin (MSLN) expressed on cells (UniProt Q13421). Briefly: flow cytometry on HEK293T-MSLN cells, serial dilution.

T4 sequence (Q13421 296-390 limits assumed): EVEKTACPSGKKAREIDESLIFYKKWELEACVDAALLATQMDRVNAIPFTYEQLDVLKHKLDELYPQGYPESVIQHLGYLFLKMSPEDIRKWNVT

B1: TCP001-P (bispecific antibody)
chain: QLQLGASGGGLVQPGGSLRLSCALSGFTLRELDEFAIGWFRQAPGKEREGVSCISGTGGITHYADSVKGRFTISRDIAKTTVYLQMNSLNSEDTAVYYCAADERCTDRLIRPPTYWGQGTQVTVSSGGGGSGGGGSGGGGSDIVLTQSPASLAMSLGERATISCRASESVSVIGAHLIHWYQQKPGQPPKLLIYLASNLETGVPARFSGSGSGTDFTLTISRVQAEDAAIYSCLQSRIFPRTFGQGTKLEIKGSTSGSGKPGSGEGSTKGQVQLVQSGSELKKPGESVKISCKASGYTFTDYSINWVKQAPGQGLKWMGWINTETREPAYAYDFRGRFVFSLDTSASTAYLQISSLKAEDTAVYFCALDYSYAMDYWGQGTLVTVSSGGGGSEQKLISEEDLGGGGSHHHHHH
notes: Positive control in TCP format
The term Kd denotes the equilibrium constant for the complex coming apart. Usually koff stands for the rate constant with which the complex falls apart. Usually kon stands for the rate constant with which the complex forms. In the test with BCMA-His antigen, B1 yielded a Kd of 0.0151 nM, a koff of 1.25e-05 s⁻¹ and a kon of 825000 M⁻¹ s⁻¹.

B2: TCP003-C (bispecific antibody)
chain: QLQLGASGGGLVQPGGSLRLSCALSGFTLRELDEFAIGWFRQAPGKEREGVSCISGTGGITHYADSVKGRFTISRDIAKTTVYLQMNSLNSEDTAVYYCAADERCTDRLIRPPTYWGQGTQVTVSSGGGGSAAAGQPREPQVYTLPPSQEEMTKNQVSLTCLVKGFYPSDIAVEWESNGQPENNYKTTPPVLDSDGSFFLYSRLTVDKSRWQEGNVFSCSVMHEALHNHYTQKSLSLSLGKGGGGSGGGGSGGGGSQVQLVESGGGLVQPGGSLRLSCAASGSITSIYAIGWYRQAPGKLRELVAAITTSGNTFYRDSVKGRFTISRDNAKNTVSLQMNSLKSEDTAVYDCNGAPWGDHAPLVVSWDQGTQVTVSSGGGGSEQKLISEEDLGGGGSHHHHHH
notes: also called TCP0031-C (as misprinted); BCMA-TCP
In general, EC50 refers to the concentration that produces a half-maximal response. Read a low EC50 as a more potent agent. With B2, in the test with BCMA-His antigen, binding was characterised by a dissociation constant (Kd) of 7.04 nM, the koff worked out at 0.000298 s⁻¹ and the kon came out at 42300 M⁻¹ s⁻¹. In test [1], this molecule registered an EC50 of 4.32 nM. In addition, in the test with BCMA expressed on cells, the EC50 was 22.3 nM.

B3: TCP-MD (VHH)
VHH: QLQLGASGGGLVQPGGSLRLSCALSGFTLRELDEFAIGWFRQAPGKEREGVSCISGTGGITHYADSVKGRFTISRDIAKTTVYLQMNSLNSEDTAVYYCAADERCTDRLIRPPTYWGQGTQVTVSS
In turn, B3 displayed an EC50 in [1] of 10.5 nM.

B4: M2339(VHH), expressed as a hFc fusion protein (Fc fusion)
chain: QLQLGASGGGLVQPGGSLRLSCALSGFTLRELDEFAIGWFRQAPGKEREGVSCISGTGGITHYADSVKGRFTISRDIAKTTVYLQMNSLNSEDTAVYYCAADERCTDRLIRPPTYWGQGTQVTVSS
notes: VHH fused to human Fc; also called M2339-hFc; M2339-IgG1; not shown: human Fc (hFc)
The term EC50 (read off the curve) denotes the midpoint of the concentration-response curve. Turning to B4, in the test with MSLN-His antigen [2], the Kd was determined as 0.264 nM, the koff is 1.82e-05 s⁻¹ and the kon came to 69000 M⁻¹ s⁻¹. The same molecule registered an EC50 (read off the curve) in [3] of 4 nM.

B5: M2339 VHH-6his (VHH)
VHH: QLQLGASGGGLVQPGGSLRLSCALSGFTLRELDEFAIGWFRQAPGKEREGVSCISGTGGITHYADSVKGRFTISRDIAKTTVYLQMNSLNSEDTAVYYCAADERCTDRLIRPPTYWGQGTQVTVSS
notes: not shown: 6xHis tag
For the molecule B5, the Kd in the test with MSLN I - Fc is 0.179 nM; in the test with MSLN I + II - Fc, 0.366 nM; with MSLN II - Fc, 0.999 nM; with MSLN II + III - Fc it was 0.0432 nM; with MSLN III - Fc it was 0.327 nM; with MSLN Full - Fc, 0.0165 nM. The koff in the test with MSLN I - Fc was 6.49e-05 s⁻¹; with MSLN I + II - Fc, 0.000174 s⁻¹; in the test with MSLN II - Fc, 0.000244 s⁻¹; with MSLN II + III - Fc it was 1.96e-05 s⁻¹; in the test with MSLN III - Fc, 0.000185 s⁻¹; in the test with MSLN Full - Fc, 1.36e-05 s⁻¹. The kon was 363000 M⁻¹ s⁻¹ with MSLN I - Fc; 476000 M⁻¹ s⁻¹ with MSLN I + II - Fc; 244000 M⁻¹ s⁻¹ with MSLN II - Fc; 454000 M⁻¹ s⁻¹ with MSLN II + III - Fc; 566000 M⁻¹ s⁻¹ with MSLN III - Fc; 823000 M⁻¹ s⁻¹ with MSLN Full - Fc.

B6: TCP001-C (bispecific antibody)
chain: QLQLGASGGGLVQPGGSLRLSCALSGFTLRELDEFAIGWFRQAPGKEREGVSCISGTGGITHYADSVKGRFTISRDIAKTTVYLQMNSLNSEDTAVYYCAADERCTDRLIRPPTYWGQGTQVTVSSGGGGSGGGGSGGGGSQVQLVESGGGLVQPGGSLRLSCAASGSITSIYAIGWYRQAPGKLRELVAAITTSGNTFYRDSVKGRFTISRDNAKNTVSLQMNSLKSEDTAVYDCNGAPWGDHAPLVVSWDQGTQVTVSSGGGGSEQKLISEEDLGGGGSHHHHHH
notes: also called BCMA-TCP
With B6, in the test with BCMA-His antigen, binding was characterised by a dissociation constant (Kd) of 0.587 nM, the koff worked out at 0.000518 s⁻¹ and the association rate constant (kon) turned out to be 882000 M⁻¹ s⁻¹. The molecule also came in with an EC50 in test [1] of 13.4 nM. In addition, in the test with BCMA expressed on cells, the response was half-maximal at 17.6 nM (EC50).

B7: anti-MSLN-1444 VHH (Fc fusion, not shown: a dimerising Fc or GST)
chain: QVQVVESGGGFVQAGGSLRLSCAASTPIISIAYMGWYRQISEKERQLVATINSGGKTYYADSVKGRFTISRDNAKNTLYLQMNMLKPEDTGMYYCAASNKDYNDYDPDWGQGTQVTVSS
Regarding B7, in the test with MSLN-His antigen [4], binding was put at a Kd of 2.1 nM, the koff worked out at 7.5e-05 s⁻¹ and the kon came to 53700 M⁻¹ s⁻¹. The molecule further gave an EC50 (read off the curve) in test [5] of 10 nM.

B8: TCP-MC (VHH)
VHH: QVQLVESGGGLVQPGGSLRLSCAASGSITSIYAIGWYRQAPGKLRELVAAITTSGNTFYRDSVKGRFTISRDNAKNTVSLQMNSLKSEDTAVYDCNGAPWGDHAPLVVSWDQGTQVTVSS
notes: also called MC001C
With B8, in the test with BCMA-His antigen, binding was put at a Kd of 0.138 nM, the koff was 0.000546 s⁻¹ and the kon was determined as 3.96e+06 M⁻¹ s⁻¹.
